Data set [1] relates to gg1 (6-finger artificial zinc finger protein) (artificial). The conditions noted are these: cited from earlier work.
For data set [2], the system named is MBP-#γA (5-finger artificial zinc finger protein) (artificial). In words: EMSA. For orientation: A gel shift assay detects complexes by their altered migration in electrophoresis.
Data set [3] has as its system MBP-#γA-opt (5-finger artificial zinc finger protein) (artificial). Description: EMSA.

A word on the Kd: it is the constant that tells how readily two partners part at equilibrium. Turning to “GTCAAGGCAAGGCTGGCC (double strand) [gg1 target site in γ-globin promoter]”, in data set [1], the Kd is 0.7 nM. “GATGCCGTTTGAGGT (double strand) [γ-globin promoter #γA target site]”: the Kd in data set [2] worked out at 3.2 nM; in data set [3] it was 7.1 nM.

(Values after publication PMC2880176.)
